{
  "source": "patent US20240294945",
  "experiment_in_all_cases": "cell_activity",
  "key": {"[1]": {"system": "ATP6 (lettuce) mt-DdCBE right (synthetic)", "details": "pair, lettuce protoplasts; first printed repeat NG vs G in site"}, "[2]": {"system": "16S rDNA cp-DdCBE left (synthetic)", "details": "pair, mRNA in lettuce protoplasts"}, "[3]": {"target": "ND4 TALE-TadA* (synthetic) (UniProt P14727)", "details": "A-to-G editing"}, "[4]": {"target": "mDdCBE ND4 TALE-E1347A DddAtox (synthetic) (UniProt P14727)", "details": "monomeric full-length DddAtox"}, "[5]": {"target": "mDdCBE ND4 TALE-GSVG DddAtox (synthetic) (UniProt P14727)", "details": "monomeric full-length DddAtox"}, "[6]": {"system": "mouse ND5 silent DdCBE right (synthetic)", "details": "pair, NIH3T3"}, "[7]": {"system": "ATP6 mt-DdCBE left (synthetic)"}, "[8]": {"system": "16S rDNA cp-DdCBE right (synthetic)", "details": "pair, mRNA in lettuce protoplasts"}},
  "data": [
    {"substance": "GAAAAAATGAAGCCCA (double strand) [ATP6 lettuce right TALE site]", "values": [
      {"measurement": "activity", "setting": "[1]", "result": 23, "unit": "%"}
    ]},
    {"substance": "GGGGAGTACGTTCGCAAG (double strand) [16S rDNA left TALE site]", "values": [
      {"measurement": "activity", "setting": "[2]", "result": "< 25", "unit": "%"}
    ]},
    {"substance": "ND4 TALE target", "values": [
      {"measurement": "activity", "setting": "[3]", "result": "< 0.6", "unit": "%"},
      {"measurement": "activity", "setting": "[4]", "result": "< 7.2", "unit": "%"},
      {"measurement": "activity", "setting": "[5]", "result": "< 31", "unit": "%"}
    ]},
    {"substance": "TTAAAATAAAGTTATTATT (double strand) [ND5 silent right TALE site]", "values": [
      {"measurement": "activity", "setting": "[6]", "result": "< 19", "unit": "%"}
    ]},
    {"substance": "TATTGGCATTACTATAG (double strand) [ATP6 left TALE site]", "values": [
      {"measurement": "activity", "setting": "[7]", "result": 23, "unit": "%"}
    ]},
    {"substance": "TGTGCGGGCCCCCGTCAA (double strand) [16S rDNA right TALE site]", "values": [
      {"measurement": "activity", "setting": "[8]", "result": "< 25", "unit": "%"}
    ]}
  ]
}
